Among the data in patent publication US5264366A, “Protease deficient bacillus” (Genencor, Inc., priority 1991, dated 1993) are Kcat, Km and kcat values, retold here.

*1 amine or outer side, *2 acyl side, *3 side chain or, on linkers, in order; H or OH if unused. Where a SMILES comes first, the peptide text is derived from it. The star is where a group is joined. pNA = O=[N+]([O-])c1ccc(N*)cc1; Suc = O=C(CCC(=O)[*:2])[*:1]

Holding throughout (assay): Kinetic parameters from progress curves, p-nitroanilide substrates
For series [1], the target named is T1, B. amyloliquefaciens subtilisin, wild type (gly-166) (Bacillus amyloliquefaciens, UniProt P00782).
T1 construct: codons for the mature subtilisin corresponding to that secreted by the B. amyloliquefaciens; made in house; host or cells: Bacillus subtilis BG2036 (protease deficient), plasmid pS4-5
T1 sequence (P00782 108-382): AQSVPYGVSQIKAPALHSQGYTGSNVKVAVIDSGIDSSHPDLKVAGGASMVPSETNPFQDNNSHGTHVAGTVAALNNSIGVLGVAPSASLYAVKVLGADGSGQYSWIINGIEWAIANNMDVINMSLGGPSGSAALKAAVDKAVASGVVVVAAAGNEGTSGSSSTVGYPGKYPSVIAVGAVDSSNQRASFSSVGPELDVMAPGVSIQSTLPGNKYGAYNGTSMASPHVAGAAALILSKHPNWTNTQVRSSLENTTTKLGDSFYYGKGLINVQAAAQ
It is filed as biochemical. The conditions noted are these: 25° C., 0.1M tris buffer, pH 8.6. How it is done: (§1) B. subtilis strain BG2036 obtained by the method of Example 11 was transformed by the plasmids of Examples 14, 15 or 20 and by pS4-5 as a control. Transformants were plated or cultured in shaker flasks for 16 to 48 h at 37° C. in LB media plus 12.5 μg/ml chloramphenicol. Mutant enzymatically active subtilisin was recovered by dialyzing cell broth against 0.01M sodium phosphate buffer, pH 6.2. The dialyzed broth was then titrated to pH 6.2 with 1N HCl and loaded on a 2.5×2 cm column of CM cellulose (CM-52 Whatman). After washing with 0.01M sodium phosphate, pH 6.2, the subtilisins (except mutants at position +222) were eluted with the same buffer made 0.08N in NaCl. The mutant subtilisins at position +222 were each eluted with 0.1M sodium phosphate, pH 7.0. The purified mutant and wild type enzymes were then used in studies of oxidation stability, Km, Kcat, Kcat/Km ratio, pH optimum, and changes in substrate specificity.
(§2) Various mutants for glycine+166 were screened for modified Kcat, Km and Kcat/Km ratios. Kinetic parameters were obtained by analysis of the progress curves of the reactions. The rate of reaction was measured as a function of substrate concentration. Data was analyzed by fitting to the Michaelis-Menton equation using the non-linear regression algorithm of Marquardt (Marquardt, D. W. 1963, "J. Soc. Ind. Appl. Math." 11, 431-41).

Substrate in series [2]: C[C@H](NC(=O)CCC(=O)O)C(=O)N[C@@H](C)C(=O)N1CCC[C@H]1C(=O)N[C@@H](Cc1ccccc1)C(=O)Nc1ccc([N+](=O)[O-])cc1
The format is biochemical, B. amyloliquefaciens. As to conditions: other: 25° C., 0.1M tris buffer, pH 8.6. How it is done:
(§3) The procedure of Examples 13-14 was followed in substantial detail, except that the mutagenesis primer differed (the 37 mer shown in FIG. 13 was used), the two restriction enzymes were SacI and XmaIII rather than PstI and KpnI and the resulting constructions differed, as shown in FIG. 13.
as §1, §2

Substrate in series [3]: CC(C)[C@H](NC(=O)c1ccccc1)C(=O)NCC(=O)N[C@@H](CCCNC(=N)N)C(=O)Nc1ccc([N+](=O)[O-])cc1
It is filed as biochemical, B. amyloliquefaciens. The conditions noted are these: other: 25° C., 0.1M tris buffer, pH 8.6. How it is done:
as §3, §1, §2

Substrate in series [4]: CC(C)[C@H](NC(=O)c1ccccc1)C(=O)NCC(=O)N[C@@H](CCCNC(=N)N)C(=O)Nc1ccc([N+](=O)[O-])cc1
It is filed as biochemical. As to conditions: other: 25° C., 0.1M tris buffer, pH 8.6. How it is done:
as §1, §2

`C[C@H](NC(=O)CCC(=O)O)C(=O)N[C@@H](C)C(=O)N1CCC[C@H]1C(=O)N[C@@H](Cc1ccccc1)C(=O)Nc1ccc([N+](=O)[O-])cc1` [sAAPFpN, succinyl-L-Alanyl-L-Alanyl-L-Prolyl-L-Phenylalanyl-p-nitroanilide] (Suc-AAPF-pNA) gave a Kcat in series [1] of 37 s⁻¹.

B1: B. amyloliquefaciens subtilisin variant ala + 166 (A166, glycine+166 substituted) (Bacillus amyloliquefaciens; G273A) (protein)
chain: AQSVPYGVSQIKAPALHSQGYTGSNVKVAVIDSGIDSSHPDLKVAGGASMVPSETNPFQDNNSHGTHVAGTVAALNNSIGVLGVAPSASLYAVKVLGADGSGQYSWIINGIEWAIANNMDVINMSLGGPSGSAALKAAVDKAVASGVVVVAAAGNEGTSGSSSTVAYPGKYPSVIAVGAVDSSNQRASFSSVGPELDVMAPGVSIQSTLPGNKYGAYNGTSMASPHVAGAAALILSKHPNWTNTQVRSSLENTTTKLGDSFYYGKGLINVQAAAQ
notes: codons for the mature subtilisin corresponding to that secreted by the B. amyloliquefaciens; made in house; host or cells: Bacillus subtilis BG2036 (protease deficient)
The term Km denotes the substrate concentration at which the rate is half of its maximum. One may read the kcat as the number of substrate molecules converted per active site and unit of time at saturation. With B1, in series [2], the Km turned out to be 27 µM and the kcat was 19 s⁻¹.

B2: B. amyloliquefaciens subtilisin variant asn + 166 (glycine+166 substituted) (Bacillus amyloliquefaciens; G273N) (protein)
chain: AQSVPYGVSQIKAPALHSQGYTGSNVKVAVIDSGIDSSHPDLKVAGGASMVPSETNPFQDNNSHGTHVAGTVAALNNSIGVLGVAPSASLYAVKVLGADGSGQYSWIINGIEWAIANNMDVINMSLGGPSGSAALKAAVDKAVASGVVVVAAAGNEGTSGSSSTVNYPGKYPSVIAVGAVDSSNQRASFSSVGPELDVMAPGVSIQSTLPGNKYGAYNGTSMASPHVAGAAALILSKHPNWTNTQVRSSLENTTTKLGDSFYYGKGLINVQAAAQ
notes: as for B1
With B2, the Km was determined as 120 µM in series [3] and 140 µM in series [2]. Besides, the kcat in series [3] was determined as 1 s⁻¹; in series [2] it was 26 s⁻¹.

B3: B. amyloliquefaciens subtilisin variant glu + 166 (E166, glycine+166 substituted) (Bacillus amyloliquefaciens; G273E) (protein)
chain: AQSVPYGVSQIKAPALHSQGYTGSNVKVAVIDSGIDSSHPDLKVAGGASMVPSETNPFQDNNSHGTHVAGTVAALNNSIGVLGVAPSASLYAVKVLGADGSGQYSWIINGIEWAIANNMDVINMSLGGPSGSAALKAAVDKAVASGVVVVAAAGNEGTSGSSSTVEYPGKYPSVIAVGAVDSSNQRASFSSVGPELDVMAPGVSIQSTLPGNKYGAYNGTSMASPHVAGAAALILSKHPNWTNTQVRSSLENTTTKLGDSFYYGKGLINVQAAAQ
notes: as for B1
Turning to B3, in series [3], the Km stood at 27 µM and the kcat turned out to be 2 s⁻¹. Further, in series [2], the Km was 340 µM and the kcat turned out to be 11 s⁻¹.

B4: B. amyloliquefaciens subtilisin variant hys + 166 (glycine+166 substituted) (Bacillus amyloliquefaciens; G273H) (protein)
chain: AQSVPYGVSQIKAPALHSQGYTGSNVKVAVIDSGIDSSHPDLKVAGGASMVPSETNPFQDNNSHGTHVAGTVAALNNSIGVLGVAPSASLYAVKVLGADGSGQYSWIINGIEWAIANNMDVINMSLGGPSGSAALKAAVDKAVASGVVVVAAAGNEGTSGSSSTVHYPGKYPSVIAVGAVDSSNQRASFSSVGPELDVMAPGVSIQSTLPGNKYGAYNGTSMASPHVAGAAALILSKHPNWTNTQVRSSLENTTTKLGDSFYYGKGLINVQAAAQ
notes: as for B1
Turning to B4, in series [2], the Km was determined as 110 µM and the kcat is 15 s⁻¹.

B5: B. amyloliquefaciens subtilisin variant lys + 166 (glycine+166 substituted) (Bacillus amyloliquefaciens; G273K) (protein)
chain: AQSVPYGVSQIKAPALHSQGYTGSNVKVAVIDSGIDSSHPDLKVAGGASMVPSETNPFQDNNSHGTHVAGTVAALNNSIGVLGVAPSASLYAVKVLGADGSGQYSWIINGIEWAIANNMDVINMSLGGPSGSAALKAAVDKAVASGVVVVAAAGNEGTSGSSSTVKYPGKYPSVIAVGAVDSSNQRASFSSVGPELDVMAPGVSIQSTLPGNKYGAYNGTSMASPHVAGAAALILSKHPNWTNTQVRSSLENTTTKLGDSFYYGKGLINVQAAAQ
notes: as for B1
Turning to B5, in series [2], the Michaelis-Menten constant (Km) is 34 µM and the kcat came out at 15 s⁻¹.

B6: B. amyloliquefaciens subtilisin variant arg + 166 (glycine+166 substituted) (Bacillus amyloliquefaciens; G273R) (protein)
chain: AQSVPYGVSQIKAPALHSQGYTGSNVKVAVIDSGIDSSHPDLKVAGGASMVPSETNPFQDNNSHGTHVAGTVAALNNSIGVLGVAPSASLYAVKVLGADGSGQYSWIINGIEWAIANNMDVINMSLGGPSGSAALKAAVDKAVASGVVVVAAAGNEGTSGSSSTVRYPGKYPSVIAVGAVDSSNQRASFSSVGPELDVMAPGVSIQSTLPGNKYGAYNGTSMASPHVAGAAALILSKHPNWTNTQVRSSLENTTTKLGDSFYYGKGLINVQAAAQ
notes: as for B1
As to B6, in series [2], the Km was determined as 62 µM and the kcat amounted to 19 s⁻¹.

B7: B. amyloliquefaciens subtilisin variant asp + 166 (D166, glycine+166 substituted) (Bacillus amyloliquefaciens; G273D) (protein)
chain: AQSVPYGVSQIKAPALHSQGYTGSNVKVAVIDSGIDSSHPDLKVAGGASMVPSETNPFQDNNSHGTHVAGTVAALNNSIGVLGVAPSASLYAVKVLGADGSGQYSWIINGIEWAIANNMDVINMSLGGPSGSAALKAAVDKAVASGVVVVAAAGNEGTSGSSSTVDYPGKYPSVIAVGAVDSSNQRASFSSVGPELDVMAPGVSIQSTLPGNKYGAYNGTSMASPHVAGAAALILSKHPNWTNTQVRSSLENTTTKLGDSFYYGKGLINVQAAAQ
notes: as for B1
For the molecule B7, the Michaelis constant (Km) is 41 µM in series [3] and 580 µM in series [2]. Further, the kcat in series [3] was 2 s⁻¹; in series [2] it was 3 s⁻¹.

B8: B. amyloliquefaciens subtilisin variant phe + 166 (glycine+166 substituted) (Bacillus amyloliquefaciens; G273F) (protein)
chain: AQSVPYGVSQIKAPALHSQGYTGSNVKVAVIDSGIDSSHPDLKVAGGASMVPSETNPFQDNNSHGTHVAGTVAALNNSIGVLGVAPSASLYAVKVLGADGSGQYSWIINGIEWAIANNMDVINMSLGGPSGSAALKAAVDKAVASGVVVVAAAGNEGTSGSSSTVFYPGKYPSVIAVGAVDSSNQRASFSSVGPELDVMAPGVSIQSTLPGNKYGAYNGTSMASPHVAGAAALILSKHPNWTNTQVRSSLENTTTKLGDSFYYGKGLINVQAAAQ
notes: as for B1
In the case of B8, in series [2], the Km was determined as 14 µM and the kcat came to 3 s⁻¹.

B9: B. amyloliquefaciens subtilisin, wild type (gly-166) (Bacillus amyloliquefaciens) (protein)
chain: AQSVPYGVSQIKAPALHSQGYTGSNVKVAVIDSGIDSSHPDLKVAGGASMVPSETNPFQDNNSHGTHVAGTVAALNNSIGVLGVAPSASLYAVKVLGADGSGQYSWIINGIEWAIANNMDVINMSLGGPSGSAALKAAVDKAVASGVVVVAAAGNEGTSGSSSTVGYPGKYPSVIAVGAVDSSNQRASFSSVGPELDVMAPGVSIQSTLPGNKYGAYNGTSMASPHVAGAAALILSKHPNWTNTQVRSSLENTTTKLGDSFYYGKGLINVQAAAQ
notes: codons for the mature subtilisin corresponding to that secreted by the B. amyloliquefaciens; made in house; host or cells: Bacillus subtilis BG2036 (protease deficient), plasmid pS4-5
As for B9, in series [4], the Km is 1100 µM and the kcat was found to be 2 s⁻¹.
